Legend:
[1] = Time-dependent loading of antibody into ascorbyl palmitate microfibers (HPLC); format: physicochemical
Description: The efficiency of antibody (i.e., IFX or ADA) loading into ascorbyl palmitate microfibers was found be time dependent. […] (and following 3 washes with PBS by centrifugation at 5000 rpm for 10 mins at 4° C.). However, by extending the loading/incubation time to 20 hours (2 hours at 22° C., 18 hours at 4° C.), the loading increased to 14% (wt/wt %).

[2] = Encapsulation efficiency in self-assembled AP microfibers versus non-assembled AP powder suspension (Coomassie Assay); format: physicochemical; details: 10 mg/mL AP mixed with equal volume of 2 mg/mL mAb in PBS, 22° C. for 2 hours, FIG. 5
Description: Ascorbyl palmitate (AP) microfiber suspensions were prepared using the self-assembly process described in Example 1 or, alternatively, using a non-assembled AP particulate used as-is from the manufacturer (USP grade ascorbyl palmitate, Sigma-Aldrich). […] After loading/incubation at 22° C. for 2 hours, the suspensions were centrifuged at 20,000×g for 10 minutes at 4° C. The supernatant was then removed and tested for soluble protein via the Coomassie Assay to determine the encapsulation efficiency.

TNF-α = target: T1, TNF-α (Homo sapiens, UniProt P01375); test: TNF-α activity assay with fibroblast L929 cells (L929 viability assay); format: cell-based; details: 1 ng/mL TNF-α in 2% serum, compared to IFX and ADA controls, FIG. 2
T1 construct: host or cells: added to murine fibroblast L929 cells
T1 sequence (P01375 77-233 limits assumed): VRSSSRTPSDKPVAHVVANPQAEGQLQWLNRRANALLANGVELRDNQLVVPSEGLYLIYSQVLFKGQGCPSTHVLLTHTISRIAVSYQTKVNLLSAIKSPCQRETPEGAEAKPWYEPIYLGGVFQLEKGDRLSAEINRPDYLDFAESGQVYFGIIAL
Description: Activity was measured using the TNF-α activity assay with fibroblast L929 cells (Gibco cytotoxicity assay for recombinant proteins).

[3] = pKa / isoelectric point and pH-dependent loading into AP microfiber suspensions; format: physicochemical; details: FIG. 4
From the text: Agent loading level can also be pH and/or charge-dependent and loading of the agent(s) may be controlled and/or optimized based using the pKa and isoelectric (pI) point of the agent. […] Accordingly, agent loading and encapsulation efficiency may be optimized/maximized by loading gel suspensions at a pH above the pKa of the gelator(s) and a pH which is below the isoelectric (pI) point of the agent(s) which are being loaded onto the gel.

[4] = cited from earlier work

infliximab [IFX]
loading ([1]; after 10 minutes of loading/incubation at 22° C., following 3 washes with PBS): 7 % (wt/wt %) | theoretical maximum loading ([1]; calculated from amounts of IFX and AP combined during loading): approximately 16.7 % (wt/wt %) | loading ([1]; loading/incubation time 20 hours (2 hours at 22° C., 18 hours at 4° C.)): 14 % (wt/wt %)

adalimumab
encapsulation of antibody, self-assembled AP microfiber suspension relative to non-self-assembled AP powder suspension [2]: greater encapsulation | activity of mAb released from gels against TNF-α (TNF-α): active against TNF-α | influence of pH on loading and encapsulation efficiency [3]: highest loading and encapsulation efficiencies are observed at a pH above the pKa of AP but below the pI

CCCCCCCCCCCCCCCC(=O)OC[C@H](O)[C@H]1OC(=O)C(O)=C1O [AP, ascorbyl palmitate]
pKa [4]: 4.4
